Test results from US20230257449A1.
Substitutions are numbered along the chain they refer to.

B1: FX-12-2-m3 (antibody, V domains shown)
VH: QVQLVQSGAEVKKPGASVKVSCKASGFTFSTYAINWVRQATGQGLEWMGVISYDANYKYYAQKFQGRVTMTRDTSISTAYMELSSLRSEDTAVYYCARDSQLRSLLYFEWLSQGYFDYWGQGTTLTVSS
VL: DIQMTQSPSSLSASVGDRVTITCRSSQSITFDYKNYLAWYQQKPGKAPKLLIYWGSSLQSGVPSRFSGSGSGTDFTLTISSLQPEDFATYYCQQHYRTPPSFGQGTKVEIK
B2: FX-10-2-m3 (antibody, V domains shown)
VH: B1 VH with A16S, N35H, T41P, M70I, T74N, I76K, Q101R
VL: B1 VL
B3: FX-3-3-m3 (antibody, V domains shown)
VH: QVQLVESGGGVVQPGRSLRLSCAASGFTFSTYAMHWVRQAPGKGLEWVAVISYDANYKYYADSVKGRFTISRDNSKNTLYLQMNSLRAEDTAVYYCAKDSQLRSLLYFEWLSQGYFDYWGQGTLVTVSS
VL: B1 VL with W54A, G55A
B4: FX-5-2-m3 (antibody, V domains shown)
VH: B3 VH with A49C, I70C, K98R, Q101R
VL: B1 VL
B5: FX-4-2-m3 (antibody, V domains shown)
VH: B3 VH with T28D, K98R, Q101R
VL: B1 VL
B6: FX-3-2-m3 (antibody, V domains shown)
VH: B3 VH
VL: B1 VL
B7: FX-6-2-m3 (antibody, V domains shown)
VH: B3 VH with S30D, K98R, Q101R
VL: B1 VL
B8: FX-5-6-m3 (antibody, V domains shown)
VH: B3 VH with A49C, I70C, K98R, Q101R
VL: EIVMTQSPATLSVSPGERATLSCRSSQSITFDYKNYLAWYQQKPGQAPRLLIYWGSTRATGIPARFSGSGSGTEFTLTISSLQSEDFAVYYCQQHYRTPPSFGQGTKVEIK
B9: FX-10-6-m3 (antibody, V domains shown)
VH: B1 VH with A16S, N35H, T41P, M70I, T74N, I76K, Q101R
VL: B8 VL
B10: FX-3-6-m3 (antibody, V domains shown)
VH: B3 VH
VL: B8 VL
B11: FX-7-6-m3 (antibody, V domains shown)
VH: B3 VH with Q1E, V5L, V11L, R16G, T31S, A49S, L124T, V125L
VL: B8 VL
B12: FX-76-1-m3 (antibody, V domains shown)
VH: QVQLLETGGGLVKPGQSLKLSCAASGFTFTSFAMHWVRQPPGKGLEWVAVVSYDGNYKYYADSVQGRFTISRDNSKNTLYLQMNSLRAEDTAVYYCAKDSRRRSLLYFEWLSQGYFNPWGQGTTLTVSS
VL: B1 VL with S57Y, Q59E

Each binder was assayed against polyclonal human IgG (assay: BLI (Octet) polyreactivity).
B1 gave a poly reactivity octet max binding response (nm) of 0.391 nm. B2 was tested, and the poly reactivity octet max binding response (nm) was 0.681 nm. In the case of B3, the poly reactivity octet max binding response (nm) is reported as 0.485 nm. With B4 the poly reactivity octet max binding response (nm) was 0.992 nm. In the case of B5, the poly reactivity octet max binding response (nm) is reported as 0.758 nm. B6 gave a poly reactivity octet max binding response (nm) of 0.521 nm. B7 was tested, and the poly reactivity octet max binding response (nm) was 0.798 nm. For B8, the poly reactivity octet max binding response (nm) was 1.13 nm. In the case of B9, the poly reactivity octet max binding response (nm) is reported as 0.862 nm. B10 gave a poly reactivity octet max binding response (nm) of 0.774 nm. Binder B11 has a poly reactivity octet max binding response (nm) of 0.703 nm.

What follows are binders tested against H1 HA (strain not stated) (influenza A virus H1) (assay: HA binding EC50; column head not printed: H1 HA and pM inferred).
B12 gave an EC50 of 3.8 pM.
